Holding throughout (assay): cell-based or functional assay
Experiment [1] deals with MMP13 (human, UniProt P45452 104-471, limits assumed).
Experiment [2] concerns the target T1, ADAMTS5 (human, UniProt Q9UNA0 262-622, limits assumed).
T1 sequence (looked up): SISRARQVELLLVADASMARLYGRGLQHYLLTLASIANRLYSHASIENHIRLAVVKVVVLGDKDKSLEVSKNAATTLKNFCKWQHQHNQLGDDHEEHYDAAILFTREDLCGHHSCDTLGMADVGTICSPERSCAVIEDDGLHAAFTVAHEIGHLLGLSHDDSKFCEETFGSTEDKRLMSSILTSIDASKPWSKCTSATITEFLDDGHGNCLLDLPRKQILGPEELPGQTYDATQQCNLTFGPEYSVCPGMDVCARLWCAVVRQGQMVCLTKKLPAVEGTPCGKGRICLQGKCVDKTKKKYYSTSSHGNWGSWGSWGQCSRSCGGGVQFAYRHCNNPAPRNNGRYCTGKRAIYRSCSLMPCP

In experiment [3] the target is T2, ADAMTS4 (human, UniProt O75173 213-685, limits assumed).
T2 sequence (looked up): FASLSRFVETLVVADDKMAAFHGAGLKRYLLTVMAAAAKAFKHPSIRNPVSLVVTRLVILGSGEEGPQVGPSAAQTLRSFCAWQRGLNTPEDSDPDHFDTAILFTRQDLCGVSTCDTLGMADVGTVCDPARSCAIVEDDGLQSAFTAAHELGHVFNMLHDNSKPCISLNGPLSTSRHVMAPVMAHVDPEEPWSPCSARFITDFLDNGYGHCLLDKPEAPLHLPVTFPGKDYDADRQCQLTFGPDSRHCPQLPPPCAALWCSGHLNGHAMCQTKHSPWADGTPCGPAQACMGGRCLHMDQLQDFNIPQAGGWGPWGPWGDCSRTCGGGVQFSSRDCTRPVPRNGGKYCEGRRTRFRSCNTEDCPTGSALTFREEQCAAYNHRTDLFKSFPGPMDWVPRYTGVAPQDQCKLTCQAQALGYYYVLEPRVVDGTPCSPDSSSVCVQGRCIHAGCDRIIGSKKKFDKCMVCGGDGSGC

B1: Variant A2M, bait region SEQ ID NO 106 (other)
chain: SVSGKPQYMVLVPSLLHTETTEKGCVLLSYLNETVTVSASLESVRGNRSLFTDLEAENDVLHCVAFAVPKSSSNEEVMFLTVQVKGPTQEFKKRTTVMVKNEDSLVFVQTDKSIYKPGQTVKFRVVSMDENFHPLNELIPLVYIQDPKGNRIAQWQSFQLEGGLKQFSFPLSSEPFQGSYKVVVQKKSGGRTEHPFTVEEFVLPKFEVQVTVPKIITILEEEMNVSVCGLYTYGKPVPGHVTVSICRKYSDASDCHGEDSQAFCEKFSGQLNSHGCFYQQVKTKVFQLKRKEYEMKLHTEAQIQEEGTVVELTGRQSSEITRTITKLSFVKVDSHFRQGIPFFGQVRLVDGKGVPIPNKVIFIRGNEANYYSNATTDEHGLVQFSINTTNVMGTSLTVRVNYKDRSPCYGYQWVSEEHEEAHHTAYLVFSPSKSFVHLEPMSHELPCGHTQTVQAHYILNGGTLLGLKKLSFYYLIMAKGGIVRTGTHGLLVKQEDMKGHFSISIPVKSDIAPVARLLIYAVLPTGDVIGDSAKYDVENCLANKVDLSFSPSQSLPASHAHLRVTAAPQSVCALRAVDQSVLLMKPDAELSASSVYNLLPEKDLTGFPGPLNDQDDEDCINRHNVYINGITYTPVSSTNEKDMYSFLEDMGLKAFTNSKIRKPKMCPQLEQYEMHGPEGLRVGESESEGGFAGLPNGKEEEGLGSIPENFFGVKLRKYFPETWIWDLVVVNSAGVAEVGVTVPDTITEWKAGAFCLSEDAGLGISSTASLRAFQPFFVELTMPYSVIRGEAFTLKATVLNYLPKCIRVSVQLEASPAFLAVPVEKEQAPHCICANGRQTVSWAVTPKSLGNVNFTVSAEALESQELCGTEVPSVPEHGRKDTVIKPLLVEPEGLEKETTFNSLLCPSGGEVSEELSLKLPPNVVEESARASVSVLGDILGSAMQNTQNLLQMPYGCGEQNMVLFAPNIYVLDYLNETQQLTPEIKSKAIGYLNTGYQRQLNYKHYDGSYSTFGERYGRNQGNTWLTAFVLKTFAQARAYIFIDEAHITQALIWLSQRQKDNGCFRSSGSLLNNAIKGGVEDEVTLSAYITIALLEIPLTVTHPVVRNALFCLESAWKTAQEGDHGSHVYTKALLAYAFALAGNQDKRKEVLKSLNEEAVKKDNSVHWERPQKPKAPVGHFYEPQAPSAEVEMTSYVLLAYLTAQPAPTSEDLTSATNIVKWITKQQNAQGGFSSTQDTVVALHALSKYGAATFTRTGKAAQVTIQSSGTFSSKFQVDNNNRLLLQQVSLPELPGEYSMKVTGEGCVYLQTSLKYNILPEKEEFPFALGVQTLPQTCDEPKAHTSFQISLSVSYTGSRSASNMAIVDVKMVSGFIPLKPTVKMLERSNHVSRTEVSSNHVLIYLDKVSNQTLSLFFTVLQDVPVRDLKPAIVKVYDYYETDEFAIAEYNAPCSKDLGNADYKDDDDKGASHHHHHH
As for B1, the “Protease Inhibition (% of WT)” value in experiment [1] was 16 % of WT; in experiment [2] it was 93 % of WT; in experiment [3] it was 104 % of WT.

B2: Variant A2M, bait region SEQ ID NO 105 (other)
chain: SVSGKPQYMVLVPSLLHTETTEKGCVLLSYLNETVTVSASLESVRGNRSLFTDLEAENDVLHCVAFAVPKSSSNEEVMFLTVQVKGPTQEFKKRTTVMVKNEDSLVFVQTDKSIYKPGQTVKFRVVSMDENFHPLNELIPLVYIQDPKGNRIAQWQSFQLEGGLKQFSFPLSSEPFQGSYKVVVQKKSGGRTEHPFTVEEFVLPKFEVQVTVPKIITILEEEMNVSVCGLYTYGKPVPGHVTVSICRKYSDASDCHGEDSQAFCEKFSGQLNSHGCFYQQVKTKVFQLKRKEYEMKLHTEAQIQEEGTVVELTGRQSSEITRTITKLSFVKVDSHFRQGIPFFGQVRLVDGKGVPIPNKVIFIRGNEANYYSNATTDEHGLVQFSINTTNVMGTSLTVRVNYKDRSPCYGYQWVSEEHEEAHHTAYLVFSPSKSFVHLEPMSHELPCGHTQTVQAHYILNGGTLLGLKKLSFYYLIMAKGGIVRTGTHGLLVKQEDMKGHFSISIPVKSDIAPVARLLIYAVLPTGDVIGDSAKYDVENCLANKVDLSFSPSQSLPASHAHLRVTAAPQSVCALRAVDQSVLLMKPDAELSASSVYNLLPEKDLTGFPGPLNDQDDEDCINRHNVYINGITYTPVSSTNEKDMYSFLEDMGLKAFTNSKIRKPKMCPQLEQYEMHGPEGLRVGGFKEGVEGEIEEGGGFKEGVEGKLRKYFPETWIWDLVVVNSAGVAEVGVTVPDTITEWKAGAFCLSEDAGLGISSTASLRAFQPFFVELTMPYSVIRGEAFTLKATVLNYLPKCIRVSVQLEASPAFLAVPVEKEQAPHCICANGRQTVSWAVTPKSLGNVNFTVSAEALESQELCGTEVPSVPEHGRKDTVIKPLLVEPEGLEKETTFNSLLCPSGGEVSEELSLKLPPNVVEESARASVSVLGDILGSAMQNTQNLLQMPYGCGEQNMVLFAPNIYVLDYLNETQQLTPEIKSKAIGYLNTGYQRQLNYKHYDGSYSTFGERYGRNQGNTWLTAFVLKTFAQARAYIFIDEAHITQALIWLSQRQKDNGCFRSSGSLLNNAIKGGVEDEVTLSAYITIALLEIPLTVTHPVVRNALFCLESAWKTAQEGDHGSHVYTKALLAYAFALAGNQDKRKEVLKSLNEEAVKKDNSVHWERPQKPKAPVGHFYEPQAPSAEVEMTSYVLLAYLTAQPAPTSEDLTSATNIVKWITKQQNAQGGFSSTQDTVVALHALSKYGAATFTRTGKAAQVTIQSSGTFSSKFQVDNNNRLLLQQVSLPELPGEYSMKVTGEGCVYLQTSLKYNILPEKEEFPFALGVQTLPQTCDEPKAHTSFQISLSVSYTGSRSASNMAIVDVKMVSGFIPLKPTVKMLERSNHVSRTEVSSNHVLIYLDKVSNQTLSLFFTVLQDVPVRDLKPAIVKVYDYYETDEFAIAEYNAPCSKDLGNADYKDDDDKGASHHHHHH
Turning to B2, the “Protease Inhibition (% of WT)” value in experiment [1] is 164 % of WT; in experiment [2], 115 % of WT; in experiment [3], 94 % of WT.

B3: Variant A2M, bait region SEQ ID NO 104 (other)
chain: SVSGKPQYMVLVPSLLHTETTEKGCVLLSYLNETVTVSASLESVRGNRSLFTDLEAENDVLHCVAFAVPKSSSNEEVMFLTVQVKGPTQEFKKRTTVMVKNEDSLVFVQTDKSIYKPGQTVKFRVVSMDENFHPLNELIPLVYIQDPKGNRIAQWQSFQLEGGLKQFSFPLSSEPFQGSYKVVVQKKSGGRTEHPFTVEEFVLPKFEVQVTVPKIITILEEEMNVSVCGLYTYGKPVPGHVTVSICRKYSDASDCHGEDSQAFCEKFSGQLNSHGCFYQQVKTKVFQLKRKEYEMKLHTEAQIQEEGTVVELTGRQSSEITRTITKLSFVKVDSHFRQGIPFFGQVRLVDGKGVPIPNKVIFIRGNEANYYSNATTDEHGLVQFSINTTNVMGTSLTVRVNYKDRSPCYGYQWVSEEHEEAHHTAYLVFSPSKSFVHLEPMSHELPCGHTQTVQAHYILNGGTLLGLKKLSFYYLIMAKGGIVRTGTHGLLVKQEDMKGHFSISIPVKSDIAPVARLLIYAVLPTGDVIGDSAKYDVENCLANKVDLSFSPSQSLPASHAHLRVTAAPQSVCALRAVDQSVLLMKPDAELSASSVYNLLPEKDLTGFPGPLNDQDDEDCINRHNVYINGITYTPVSSTNEKDMYSFLEDMGLKAFTNSKIRKPKMCPQLEQYEMHGPEGLRVGESESEGGGGGSLLGEFEVEGGFAGLPNGKLRKYFPETWIWDLVVVNSAGVAEVGVTVPDTITEWKAGAFCLSEDAGLGISSTASLRAFQPFFVELTMPYSVIRGEAFTLKATVLNYLPKCIRVSVQLEASPAFLAVPVEKEQAPHCICANGRQTVSWAVTPKSLGNVNFTVSAEALESQELCGTEVPSVPEHGRKDTVIKPLLVEPEGLEKETTFNSLLCPSGGEVSEELSLKLPPNVVEESARASVSVLGDILGSAMQNTQNLLQMPYGCGEQNMVLFAPNIYVLDYLNETQQLTPEIKSKAIGYLNTGYQRQLNYKHYDGSYSTFGERYGRNQGNTWLTAFVLKTFAQARAYIFIDEAHITQALIWLSQRQKDNGCFRSSGSLLNNAIKGGVEDEVTLSAYITIALLEIPLTVTHPVVRNALFCLESAWKTAQEGDHGSHVYTKALLAYAFALAGNQDKRKEVLKSLNEEAVKKDNSVHWERPQKPKAPVGHFYEPQAPSAEVEMTSYVLLAYLTAQPAPTSEDLTSATNIVKWITKQQNAQGGFSSTQDTVVALHALSKYGAATFTRTGKAAQVTIQSSGTFSSKFQVDNNNRLLLQQVSLPELPGEYSMKVTGEGCVYLQTSLKYNILPEKEEFPFALGVQTLPQTCDEPKAHTSFQISLSVSYTGSRSASNMAIVDVKMVSGFIPLKPTVKMLERSNHVSRTEVSSNHVLIYLDKVSNQTLSLFFTVLQDVPVRDLKPAIVKVYDYYETDEFAIAEYNAPCSKDLGNADYKDDDDKGASHHHHHH
Regarding B3, the “Protease Inhibition (% of WT)” value in experiment [1] was 80 % of WT; in experiment [2], 99 % of WT; in experiment [3] it was 100 % of WT.

Source of the values: patent US20230250154A1 (CYTONICS, published 2023).
